In US20060239990A1 (published 2006):

B1: S35-labeled in vitro translated PRMT3 (human) (enzyme, UniProt O60678 2-531, looked up)
chain: CSLASGATGGRGAVENEEDLPELSDSGDEAAWEDEDDADLPHGKQQTPCLFCNRLFTSAEETFSHCKSEHQFNIDSMVHKHGLEFYGYIKLINFIRLKNPTVEYMNSIYNPVPWEKEEYLKPVLEDDLLLQFDVEDLYEPVSVPFSYPNGLSENTSVVEKLKHMEARALSAEAALARAREDLQKMKQFAQDFVMHTDVRTCSSSTSVIADLQEDEDGVYFSSYGHYGIHEEMLKDKIRTESYRDFIYQNPHIFKDKVVLDVGCGTGILSMFAAKAGAKKVLGVDQSEILYQAMDIIRLNKLEDTITLIKGKIEEVHLPVEKVDVIISEWMGYFLLFESMLDSVLYAKNKYLAKGGSVYPDICTISLVAVSDVNKHADRIAFWDDVYGFKMSCMKKAVIPEAVVEVLDPKTLISEPCGIKHIDCHTTSISDLEFSSDFTLKITRTSMCTAIAGYFDIYFEKNCHNRVVFSTGPQSTKTHWKQTVFLLEKPFSVKAGEALKGKVTVHKNKKDPRSLTVTLTLNNSTQTYGLQ
modifications: [35S]-methionine label
B2: S35-labeled in vitro translated PRMT4 (CARM1) (human) (enzyme, UniProt Q86X55 2-608, looked up)
chain: AAAAAAVGPGAGGAGSAVPGGAGPCATVSVFPGARLLTIGDANGEIQRHAEQQALRLEVRAGPDSAGIALYSHEDVCVFKCSVSRETECSRVGKQSFIITLGCNSVLIQFATPNDFCSFYNILKTCRGHTLERSVFSERTEESSAVQYFQFYGYLSQQQNMMQDYVRTGTYQRAILQNHTDFKDKIVLDVGCGSGILSFFAAQAGARKIYAVEASTMAQHAEVLVKSNNLTDRIVVIPGKVEEVSLPEQVDIIISEPMGYMLFNERMLESYLHAKKYLKPSGNMFPTIGDVHLAPFTDEQLYMEQFTKANFWYQPSFHGVDLSALRGAAVDEYFRQPVVDTFDIRILMAKSVKYTVNFLEAKEGDLHRIEIPFKFHMLHSGLVHGLAFWFDVAFIGSIMTVWLSTAPTEPLTHWYQVRCLFQSPLFAKAGDTLSGTCLLIANKRQSYDISIVAQVDQTGSKSSNLLDLKNPFFRYTGTTPSPPPGSHYTSPSENMWNTGSTYNLSSGMAVAGMPTAYDLSSVIASGSSVGHNNLIPLANTGIVNHTHSRMGSIMSTGIVQGSSGAQGSGGGSTSAHYAVNSQFTMGGPAISMASPMSIPTNTMHYGS
modifications: [35S]-methionine label
B3: PRMT2(1-95) (enzyme)
chain: MATSGDCPRSESQGEEPAECSEAGLLQEGVQPEEFVAIADYAATDETQLSFLRGEKILILRQTTADWWWGERAGCCGYIPANHVGKHVDEYDPED
modifications: [35S]-methionine label
B4: PRMT2(1-95&219-433) (enzyme)
chain: MATSGDCPRSESQGEEPAECSEAGLLQEGVQPEEFVAIADYAATDETQLSFLRGEKILILRQTTADWWWGERAGCCGYIPANHVGKHVDEYDPEDFEFMIESILYARDAWLKEDGVIWPTMAALHLVPCSADKDYRSKVLFWDNAYEFNLSALKSLAVKEFFSKPKYNHILKPEDCLSEPCTILQLDMRTVQISDLETLRGELRFDIRKAGTLHGFTAWFSVHFQSLQEGQPPQVLSTGPFHPTTHWKQTLFMMDDPVPVHTGDVVTGSVVLQRNPVWRRHMSVALSWAVTSRQDPTSQKVGEKVFPIWR
modifications: [35S]-methionine label in the binding assay
notes: the same deletion was expressed from pVR1012 in the U2OS reporter assay; also called Int-del

Assays:
GST-RB fusion protein [1] = target: T1, GST-RB fusion protein (UniProt P06400 1-928); assay: GST pull-down of S35-labeled in vitro translated protein with GST-RB on glutathione sepharose beads
T1 construct: not shown: glutathione S-transferase tag of the pGEX-6P vector (Amersham/Pharmacia)
T1 sequence (looked up): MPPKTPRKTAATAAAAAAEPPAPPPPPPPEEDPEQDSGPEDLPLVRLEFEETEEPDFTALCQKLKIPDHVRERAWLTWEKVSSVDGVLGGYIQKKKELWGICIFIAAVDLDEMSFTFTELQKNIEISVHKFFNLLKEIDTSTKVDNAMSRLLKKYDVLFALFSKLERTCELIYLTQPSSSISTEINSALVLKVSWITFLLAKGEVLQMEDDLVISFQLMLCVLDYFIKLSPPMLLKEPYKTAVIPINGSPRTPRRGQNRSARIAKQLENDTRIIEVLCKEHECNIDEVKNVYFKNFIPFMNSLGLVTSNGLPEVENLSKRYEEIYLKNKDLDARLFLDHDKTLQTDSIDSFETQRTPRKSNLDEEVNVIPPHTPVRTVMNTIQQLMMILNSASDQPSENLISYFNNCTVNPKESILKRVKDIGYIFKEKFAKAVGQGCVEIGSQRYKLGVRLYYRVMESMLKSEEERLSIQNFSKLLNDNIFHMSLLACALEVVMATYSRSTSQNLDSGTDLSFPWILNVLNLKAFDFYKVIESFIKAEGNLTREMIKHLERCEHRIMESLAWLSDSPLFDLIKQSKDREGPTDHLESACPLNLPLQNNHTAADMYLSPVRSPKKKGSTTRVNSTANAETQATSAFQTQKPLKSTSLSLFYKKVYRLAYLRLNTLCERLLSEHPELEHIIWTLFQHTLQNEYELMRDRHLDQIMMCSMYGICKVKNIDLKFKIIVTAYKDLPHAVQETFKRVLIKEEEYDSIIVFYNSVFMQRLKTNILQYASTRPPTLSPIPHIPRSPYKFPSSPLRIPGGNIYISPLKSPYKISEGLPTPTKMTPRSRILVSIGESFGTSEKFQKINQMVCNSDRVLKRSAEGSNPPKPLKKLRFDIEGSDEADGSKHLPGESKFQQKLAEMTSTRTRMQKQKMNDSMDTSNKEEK
Method: GST-RB and GST were bound to glutathione sepharose beads and incubated with S³⁵-labeled in vitro translated PRMT1, PRMT2, PRMT3, and PRMT4. Co-precipitated labeled PRMTs were analyzed by SDS-PAGE. […] HA-tagged PRMT2 (+) or control vectors (−) were transfected in 293 cells. Cell lysates were immunoprecipitated with rabbit RB antibodies or IgG and followed by Western blot analysis using mouse HA and RB antibodies (upper panel). A Western blot using mouse HA antibodies detects HA-tagged PRMT2 (lower panel).
The crude cell lysate of the GST-fusion proteins was prepared and purified according to the manufacture's protocol (Amersham/Pharmacia). [³⁵S]-methionine-labeled protein was produced by in vitro transcription/translation using the TNT T7-coupled reticulocyte lysate system (Promega). [³⁵S]-methionine-labeled protein and GST-fusion protein bound to glutathione sepharose 4B beads were incubated in 500 μl of HNE buffer (50 mM Hepes, pH 7.8, 150 mM NaCl, 1 mM EDTA, 1 mM DTT, 1% NP40, and 1× protease inhibitor mix (Complete: Roche)) at 4° C. for 1 hour. Beads were washed four times with HNE buffer, and then analyzed on an SDS-PAGE gradient gel (4-15%). […]

GST-RB fusion protein [2] = target: T1, GST-RB fusion protein; assay: GST pull-down of S35-labeled in vitro translated protein with GST-RB

Row | Binder | binding result (GST-RB fusion protein [1]) | binding result (GST-RB fusion protein [2])
1 | B1 | no binding | –
2 | B2 | no binding | –
3 | B3 | – | no binding
4 | B4 | – | no binding
